# Results taken from IntAct's records for PubMed 29892012.
# B1: Forkhead box protein P3 (Homo sapiens), Q9BZS1 (parent)
# chain: MPNPRPGKPSAPSLALGPSPGASPSWRAAPKASDLLGARGPGGTFQGRDLRGGAHASSSSLNPMPPSQLQLPTLPLVMVAPSGARLGPLPHLQALLQDRPHFMHQLSTVDAHARTPVLQVHPLESPAMISLTPPTTATGVFSLKARPGLPPGINVASLEWVSREPALLCTFPNPSAPRKDSTLSAVPQSSYPLLANGVCKWPGCEKVFEEPEDFLKHCQADHLLDEKGRAQCLLQREMVQSLEQQLVLEKEKLSAMQAHLAGKMALTKASSVASSDKGSCCIVAAGSQGPVVPAWSGPREAPDSLFAVRRHLWGSHGNSTFPEFLHNMDYFKFHNMRPPFTYATLIRWAILEAPEKQRTLNEIYHWFTRMFAFFRNHPATWKNAIRHNLSLHKCFVRVESEKGAVWTVDELEFRKKRSQRPSRCSNPTPGP
# B2: Methanethiol oxidase (Homo sapiens), Q13228 (parent)
# chain: MATKCGNCGPGYSTPLEAMKGPREEIVYLPCIYRNTGTEAPDYLATVDVDPKSPQYCQVIHRLPMPNLKDELHHSGWNTCSSCFGDSTKSRTKLVLPSLISSRIYVVDVGSEPRAPKLHKVIEPKDIHAKCELAFLHTSHCLASGEVMISSLGDVKGNGKGGFVLLDGETFEVKGTWERPGGAAPLGYDFWYQPRHNVMISTEWAAPNVLRDGFNPADVEAGLYGSHLYVWDWQRHEIVQTLSLKDGLIPLEIRFLHNPDAAQGFVGCALSSTIQRFYKNEGGTWSVEKVIQVPPKKVKGWLLPEMPGLITDILLSLDDRFLYFSNWLHGDLRQYDISDPQRPRLTGQLFLGGSIVKGGPVQVLEDEELKSQPEPLVVKGKRVAGGPQMIQLSLDGKRLYITTSLYSAWDKQFYPDLIREGSVMLQVDVDTVKGGLKLNPNFLVDFGKEPLGPALAHELRYPGGDCSSDIWI
# partner: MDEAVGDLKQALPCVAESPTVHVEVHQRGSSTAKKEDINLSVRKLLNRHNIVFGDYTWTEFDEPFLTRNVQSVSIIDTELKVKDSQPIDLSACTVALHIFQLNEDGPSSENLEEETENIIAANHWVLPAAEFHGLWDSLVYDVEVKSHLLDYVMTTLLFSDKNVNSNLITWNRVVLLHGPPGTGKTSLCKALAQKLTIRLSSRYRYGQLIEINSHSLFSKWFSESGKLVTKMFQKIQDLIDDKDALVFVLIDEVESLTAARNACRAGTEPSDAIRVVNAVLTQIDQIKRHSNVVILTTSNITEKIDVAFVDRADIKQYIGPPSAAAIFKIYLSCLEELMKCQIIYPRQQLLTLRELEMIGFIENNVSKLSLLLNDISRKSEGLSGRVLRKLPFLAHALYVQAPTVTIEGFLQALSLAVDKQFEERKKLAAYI
# B3: Late cornified envelope protein 1B (Homo sapiens), Q5T7P3 (parent)
# chain: MSCQQNQQQCQPPPKCIPKCPPKCLTPRCPPKCPPKCPPVSSCCSVSSGGCCGSSSGGSCGSSSGGCCSSGGGGCCLSHHRRRRSHCHRPQSSGCCSQPSGGSSCCGGGSGQHSGGCC
# partner: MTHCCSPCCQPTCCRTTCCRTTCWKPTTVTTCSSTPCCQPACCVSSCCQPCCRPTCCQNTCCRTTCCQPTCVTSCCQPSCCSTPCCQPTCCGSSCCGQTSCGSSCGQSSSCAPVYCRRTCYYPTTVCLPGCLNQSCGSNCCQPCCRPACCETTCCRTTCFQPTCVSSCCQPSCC
# B4: Late cornified envelope protein 1B (Homo sapiens), Q5T7P3 (parent)
# chain: B3 chain
# partner: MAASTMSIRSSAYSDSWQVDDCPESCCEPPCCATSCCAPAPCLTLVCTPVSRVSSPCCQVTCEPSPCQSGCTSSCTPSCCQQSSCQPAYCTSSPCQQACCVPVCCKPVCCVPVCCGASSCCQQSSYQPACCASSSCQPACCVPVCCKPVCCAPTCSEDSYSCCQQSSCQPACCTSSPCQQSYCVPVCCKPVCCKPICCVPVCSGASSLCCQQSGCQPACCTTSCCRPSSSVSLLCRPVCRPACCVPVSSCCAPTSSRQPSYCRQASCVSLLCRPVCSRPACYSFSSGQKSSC
# B5: Late cornified envelope protein 1B (Homo sapiens), Q5T7P3 (parent)
# chain: B3 chain
# Variants of: B1
# Settings: with pr20e_human PRR20E
row,Variant,effect of a mutation on the interaction
1,MPNPRPGKPSAPSLALGPSPGASPSWRAAPKASDLLGARGPGGTFQGRDLRGGAHASSSSLNPMPPSQLQLPTLPLVMVAPSGARLGPLPHLQALLQDRPHFMHQLSMVDAHARTPVLQVHPLESPAMISLTPPTTATGVFSLKARPGLPPGINVASLEWVSREPALLCTFPNPSAPRKDSTLSAVPQSSYPLLANGVCKWPGCEKVFEEPEDFLKHCQADHLLDEKGRAQCLLQREMVQSLEQQLVLEKEKLSAMQAHLAGKMALTKASSVASSDKGSCCIVAAGSQGPVVPAWSGPREAPDSLFAVRRHLWGSHGNSTFPEFLHNMDYFKFHNMRPPFTYATLIRWAILEAPEKQRTLNEIYHWFTRMFAFFRNHPATWKNAIRHNLSLHKCFVRVESEKGAVWTVDELEFRKKRSQRPSRCSNPTPGP [T108M],with no effect

# Variants of: B1
# Settings: with rbpms_human RBPMS
row,Variant,effect of a mutation on the interaction
1,MPNPRPGKPSAPSLALGPSPGASPSWRAAPKASDLLGARGPGGTFQGRDLRGGAHASSSSLNPMPPSQLQLPTLPLVMVAPSGARLGPLPHLQALLQDRPHFMHQLSMVDAHARTPVLQVHPLESPAMISLTPPTTATGVFSLKARPGLPPGINVASLEWVSREPALLCTFPNPSAPRKDSTLSAVPQSSYPLLANGVCKWPGCEKVFEEPEDFLKHCQADHLLDEKGRAQCLLQREMVQSLEQQLVLEKEKLSAMQAHLAGKMALTKASSVASSDKGSCCIVAAGSQGPVVPAWSGPREAPDSLFAVRRHLWGSHGNSTFPEFLHNMDYFKFHNMRPPFTYATLIRWAILEAPEKQRTLNEIYHWFTRMFAFFRNHPATWKNAIRHNLSLHKCFVRVESEKGAVWTVDELEFRKKRSQRPSRCSNPTPGP [T108M],with no effect

# Variants of: B2
# Settings: with pch2_human TRIP13, Q15645
row,Variant,effect of a mutation on the interaction
1,MATKCGNCGPGYSTPLEAMKGPREEIVYLPCIYRNTGTEAPDYLATVDVDPKSPQYCQVIHRLPMPNLKDELHHSGWNTCSSCFGDSTKSRTKLVLPSLISSRIYVVDVGSEPRAPKLHKVIEPKDIHAKCELAFLHTSHCLASGEVMISSLGDVKGNGKGGFVLLDGETFEVKGTWERPGGAAPLGYDFWYQPRHNVMISTEWAAPNVLRDGFNPADVEAGLYGSHLYVWDWQRHEIVQTLSLKDGLIPLEIRFLHNPDAAQGFVGCALSSTIQRFYKNEGGTWSVEKVIQVPPKKVKGWLLPEMPGLITDILLSLDDRFLYFSNWLHGDLRQYDISDPQRPRLTGQLFLGGSIVKGGPVQVLEDEELKSQPEPLVVKGKRVAGGPQMIQLSLDGKCLYITTSLYSAWDKQFYPDLIREGSVMLQVDVDTVKGGLKLNPNFLVDFGKEPLGPALAHELRYPGGDCSSDIWI [R398C],with no effect

# Variants of: B3
# Settings: with kra92_human KRTAP9-2, Q9BYQ4
row,Variant,effect of a mutation on the interaction
1,MSCQQNQQQCQPPPKYIPKCPPKCLTPRCPPKCPPKCPPVSSCCSVSSGGCCGSSSGGSCGSSSGGCCSSGGGGCCLSHHRRRRSHCHRPQSSGCCSQPSGGSSCCGGGSGQHSGGCC,disrupting interaction strength

# Variants of: B4
# Settings: with kr109_human KRTAP10-9, P60411
row,Variant,effect of a mutation on the interaction
1,MSCQQNQQQCQPPPKYIPKCPPKCLTPRCPPKCPPKCPPVSSCCSVSSGGCCGSSSGGSCGSSSGGCCSSGGGGCCLSHHRRRRSHCHRPQSSGCCSQPSGGSSCCGGGSGQHSGGCC,disrupting interaction strength

# Variants of: B5
# Settings: with kr108_human KRTAP10-8, P60410
# Sequence of kr108_human KRTAP10-8, P60410 (P60410 whole entry): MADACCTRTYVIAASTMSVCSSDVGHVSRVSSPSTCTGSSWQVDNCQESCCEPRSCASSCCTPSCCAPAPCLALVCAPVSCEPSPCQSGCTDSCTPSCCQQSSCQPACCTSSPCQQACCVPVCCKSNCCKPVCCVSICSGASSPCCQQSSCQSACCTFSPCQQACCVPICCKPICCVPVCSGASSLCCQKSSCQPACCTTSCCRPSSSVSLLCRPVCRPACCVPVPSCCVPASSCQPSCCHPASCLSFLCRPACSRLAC
row,Variant,effect of a mutation on the interaction
1,MSCQQNQQQCQPPPKYIPKCPPKCLTPRCPPKCPPKCPPVSSCCSVSSGGCCGSSSGGSCGSSSGGCCSSGGGGCCLSHHRRRRSHCHRPQSSGCCSQPSGGSSCCGGGSGQHSGGCC,disrupting interaction strength

# Variants of: B5
# Settings: with kr103_human KRTAP10-3, P60369
# Sequence of kr103_human KRTAP10-3, P60369 (P60369 whole entry): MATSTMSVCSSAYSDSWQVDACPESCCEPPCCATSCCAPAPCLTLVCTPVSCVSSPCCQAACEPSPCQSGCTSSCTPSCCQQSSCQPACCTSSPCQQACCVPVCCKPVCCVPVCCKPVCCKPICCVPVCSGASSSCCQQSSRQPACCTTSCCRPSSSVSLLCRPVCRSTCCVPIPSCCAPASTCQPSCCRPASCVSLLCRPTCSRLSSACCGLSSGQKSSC
row,Variant,effect of a mutation on the interaction
1,MSCQQNQQQCQPPPKYIPKCPPKCLTPRCPPKCPPKCPPVSSCCSVSSGGCCGSSSGGSCGSSSGGCCSSGGGGCCLSHHRRRRSHCHRPQSSGCCSQPSGGSSCCGGGSGQHSGGCC,disrupting interaction strength

# Variants of: B5
# Settings: with kr101_human KRTAP10-1, P60331
# Sequence of kr101_human KRTAP10-1, P60331 (P60331 whole entry): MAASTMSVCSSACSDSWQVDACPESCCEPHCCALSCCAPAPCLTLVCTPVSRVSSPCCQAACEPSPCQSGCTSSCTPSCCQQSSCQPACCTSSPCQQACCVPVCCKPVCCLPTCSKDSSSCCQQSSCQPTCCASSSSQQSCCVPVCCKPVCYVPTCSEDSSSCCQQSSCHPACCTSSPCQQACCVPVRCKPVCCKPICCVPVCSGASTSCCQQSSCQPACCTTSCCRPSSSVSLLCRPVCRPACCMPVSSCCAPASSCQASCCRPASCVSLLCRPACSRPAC
row,Variant,effect of a mutation on the interaction
1,MSCQQNQQQCQPPPKYIPKCPPKCLTPRCPPKCPPKCPPVSSCCSVSSGGCCGSSSGGSCGSSSGGCCSSGGGGCCLSHHRRRRSHCHRPQSSGCCSQPSGGSSCCGGGSGQHSGGCC,with no effect

# Variants of: B5
# Settings: with hxa1_human HOXA1, P49639
# Sequence of hxa1_human HOXA1, P49639 (P49639 whole entry): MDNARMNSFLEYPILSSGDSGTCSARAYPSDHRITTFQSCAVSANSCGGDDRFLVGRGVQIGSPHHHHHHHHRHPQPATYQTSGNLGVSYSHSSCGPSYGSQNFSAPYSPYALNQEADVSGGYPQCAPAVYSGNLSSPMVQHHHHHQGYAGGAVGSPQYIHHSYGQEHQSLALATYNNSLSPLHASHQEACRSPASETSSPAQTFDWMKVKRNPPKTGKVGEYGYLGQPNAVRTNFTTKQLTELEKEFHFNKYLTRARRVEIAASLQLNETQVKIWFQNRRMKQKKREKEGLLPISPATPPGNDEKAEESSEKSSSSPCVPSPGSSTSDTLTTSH
row,Variant,effect of a mutation on the interaction
1,MSCQQNQQQCQPPPKYIPKCPPKCLTPRCPPKCPPKCPPVSSCCSVSSGGCCGSSSGGSCGSSSGGCCSSGGGGCCLSHHRRRRSHCHRPQSSGCCSQPSGGSSCCGGGSGQHSGGCC,with no effect

# Variants of: B5
# Settings: with kr105_human KRTAP10-5, P60370
# Sequence of kr105_human KRTAP10-5, P60370 (P60370 whole entry): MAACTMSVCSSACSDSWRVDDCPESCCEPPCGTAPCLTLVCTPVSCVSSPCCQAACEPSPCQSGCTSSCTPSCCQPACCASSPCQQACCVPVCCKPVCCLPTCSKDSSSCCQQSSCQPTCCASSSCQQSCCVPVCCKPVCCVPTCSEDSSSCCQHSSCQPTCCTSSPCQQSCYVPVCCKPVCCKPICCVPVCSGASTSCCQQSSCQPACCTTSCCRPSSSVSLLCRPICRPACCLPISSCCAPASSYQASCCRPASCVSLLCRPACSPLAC
row,Variant,effect of a mutation on the interaction
1,MSCQQNQQQCQPPPKYIPKCPPKCLTPRCPPKCPPKCPPVSSCCSVSSGGCCGSSSGGSCGSSSGGCCSSGGGGCCLSHHRRRRSHCHRPQSSGCCSQPSGGSSCCGGGSGQHSGGCC,disrupting interaction strength

# Variants of: B5
# Settings: with mdfi_human MDFI
row,Variant,effect of a mutation on the interaction
1,MSCQQNQQQCQPPPKYIPKCPPKCLTPRCPPKCPPKCPPVSSCCSVSSGGCCGSSSGGSCGSSSGGCCSSGGGGCCLSHHRRRRSHCHRPQSSGCCSQPSGGSSCCGGGSGQHSGGCC,disrupting interaction strength

# Variants of: B5
# Settings: with otx1_human OTX1, P32242
# Sequence of otx1_human OTX1, P32242 (P32242 whole entry): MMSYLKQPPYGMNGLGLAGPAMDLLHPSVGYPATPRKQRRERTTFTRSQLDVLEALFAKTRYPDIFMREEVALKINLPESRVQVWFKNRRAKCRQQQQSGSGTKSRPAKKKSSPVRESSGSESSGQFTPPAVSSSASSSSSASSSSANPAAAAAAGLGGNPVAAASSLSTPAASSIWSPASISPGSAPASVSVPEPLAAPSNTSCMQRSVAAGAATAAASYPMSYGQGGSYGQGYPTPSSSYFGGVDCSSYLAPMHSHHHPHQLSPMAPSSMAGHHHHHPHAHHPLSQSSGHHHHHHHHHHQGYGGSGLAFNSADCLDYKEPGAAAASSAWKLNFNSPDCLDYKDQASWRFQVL
row,Variant,effect of a mutation on the interaction
1,MSCQQNQQQCQPPPKYIPKCPPKCLTPRCPPKCPPKCPPVSSCCSVSSGGCCGSSSGGSCGSSSGGCCSSGGGGCCLSHHRRRRSHCHRPQSSGCCSQPSGGSSCCGGGSGQHSGGCC,with no effect

# Variants of: B5
# Settings: with kra32_human KRTAP3-2, Q9BYR7
# Sequence of kra32_human KRTAP3-2, Q9BYR7 (Q9BYR7 whole entry): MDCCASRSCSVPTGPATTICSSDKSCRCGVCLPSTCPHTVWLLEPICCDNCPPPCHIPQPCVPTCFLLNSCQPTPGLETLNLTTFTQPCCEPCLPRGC
row,Variant,effect of a mutation on the interaction
1,MSCQQNQQQCQPPPKYIPKCPPKCLTPRCPPKCPPKCPPVSSCCSVSSGGCCGSSSGGSCGSSSGGCCSSGGGGCCLSHHRRRRSHCHRPQSSGCCSQPSGGSSCCGGGSGQHSGGCC,with no effect

# Variants of: B5
# Settings: with nt2na_human NOTCH2NLA
row,Variant,effect of a mutation on the interaction
1,MSCQQNQQQCQPPPKYIPKCPPKCLTPRCPPKCPPKCPPVSSCCSVSSGGCCGSSSGGSCGSSSGGCCSSGGGGCCLSHHRRRRSHCHRPQSSGCCSQPSGGSSCCGGGSGQHSGGCC,with no effect
